From the supplement of paper PMC12667976

B1: library; numbered along this chain (parent)
chain: MATDAALRRLLRLHRTEIAVAVDSAFPLLHALADHDVVPEDKFQETLHLKEKEGCPQAFHALLSWLLTQDSTAILDFWRVLFKDYNLERYGRLQPILDSFPKDVDLSQPRKGRKPPAVPKALVPPPRLPTKRKASEEARAAAPAALTPRGTASPGSQLKAKPPKKPESSAEQQRLPLGNGIQTMSASVQRAVAMSSGDVPGARGAVEGILIQQVFESGGSKKCIQVGGEFYTPSKFEDSGSGKNKARSSSGPKPLVRAKGAQGAAPGGGEARLGQQGSVPAPLALPSDPQLHQKNEDECAVCRDGGELICCDGCPRAFHLACLSPPLREIPSGTWRCSSCLQATVQEVQPRAEEPRPQEPPVETPLPPGLRSAGEEVRGPPGEPLAGMDTTLVYKHLPAPPSAAPLPGLDSSALHPLLCVGPEGQQNLAPGARCGVCGDGTDVLRCTHCAAAFHWRCHFPAGTSRPGTGLRCRSCSGDVTPAPVEGVLAPSPARLAPGPAKDDTASHEPALHRDDLESLLSEHTFDGILQWAIQSMARPAAPFPS

Variants of: B1
Assay: AIRE transcriptional activation functional score (insulin promoter-GFP; nonsense median 0, synonymous median 1) (normalised score); higher = higher AIRE activity (more reporter activation)
Settings: with insulin promoter-GFP reporter in HEK293
In short: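 Codon-optimized AIRE NNN-codon libraries (three regions) were integrated by Bxb1 recombinase into Flp-In T-REx HEK293 landing-pad cells carrying an insulin core promoter-GFP reporter. Integrants (mCherry+, BFP−) sorted at day 7 were expanded 7 days; top 10% GFP and unselected integrant populations were tile-sequenced. Functional score is select versus non-select variant enrichment, wild-type subtracted. Variants needed 10 counts per million in non-select; scores were rescaled to nonsense median 0 and synonymous median 1, then averaged over biological replicates.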

AIRE transcriptional activation functional score, by site and new letter:
P401: V 0.635 | F 0.595 | D 1.07 | L 0.646 | G 1.14 | H 1.01 | K 1.55 | R 1.15 | T 0.717 | Y 1.14 | Q 1.18 | S 1.25 | E 1.49 | N 1.09 | M 0.689 | C 1.7 | I 0.809 | A 0.611
A403: G 1.26 | F 1.09 | H 1.02 | I 1.5 | L 1.29 | R 0.877 | M 1.38 | V 1.29 | Q 0.915 | K 1.06 | N 1.09 | E 1.14 | W 1.72 | C 0.942 | P 0.99 | D 0.541 | T 1.14 | Y 0.507 | S 0.725
P400: F 0.712 | R 1.16 | G 1.13 | T 0.851 | A 1.56 | C 0.972 | Q 1.52 | L 0.451 | I 0.76 | S 0.846 | N 0.58 | W 1.89 | H 0.71 | E 0.545 | D 0.319 | Y 1.69 | V 0.815
D410: C 1.12 | S 1.27 | H 1.17 | W 0.337 | K 0.35 | Y 1.27 | T 1.41 | F 1.06 | I 1.19 | G 0.967 | P 0.93 | R 0.412 | L 1.08 | Q 1.2 | M 0.501 | V 0.998 | A 1.09 | N 1.12 | E 1.11
L406: V 0.908 | P 0.97 | A 0.954 | H 1.19 | N 1.18 | K 0.516 | D 0.772 | Y 1.02 | G 1.08 | C 1.3 | R 0.985 | F 0.76 | S 0.856 | Q 1.11 | W 0.702 | I 1.19 | E 1.12 | T 0.633 | M 1.3
A404: F 1.26 | R 1.01 | C 0.451 | T 1.04 | W 1.16 | H 1.66 | P 1.28 | D 0.792 | M 0.918 | E 0.954 | Q 0.81 | V 0.729 | S 1.02 | G 0.91 | K 1.05 | I 0.94 | Y 1.3 | L 1.26
H415: I 0.632 | A 1.08 | K 0.65 | C 0.616 | L 1.22 | D 0.797 | F 1.67 | G 0.474 | E 1.32
G408: A 0.914 | L 0.00278 | S 1.03 | D 1.2 | I 0.636 | Y 1.08 | V 0.743 | T 0.879 | F 1.28 | W 1.34 | R 0.906 | C 1.01 | Q 1.29 | H 1.31 | K 1.14 | E 1.05 | P 0.97 | N 0.674
P405: L 0.801 | K 1 | Y 1.17 | I 1.59 | G 0.341 | N 1.22 | R 0.984 | Q 0.685 | T 1.16 | E 0.742 | S 1.05 | C 1.59 | V 1.21 | H 1.04 | F 1.03
P398: A 1.09 | M 0.82 | Q 1.31 | N 0.615 | S 0.979 | C 0.359 | Y 1.69 | W 1.64 | V 1.31 | G 1.14 | I 1.23 | E 0.984 | L 1.5 | F 1.43 | K 1.04 | R 0.958 | D 0.585 | T 1.21 | H 1.24
L414: D 1.03 | A 1.49 | G 0.546 | T 1.14 | F 1.41 | W 0.979 | I 1.45 | K 0.634 | Y -0.109 | E 1.08 | P 0.785 | C 0.792 | R 0.749 | H 0.857 | S 0.625 | N 1.07 | V 1.1
S402: D 0.871 | P 1.07 | I 0.78 | G 1.34 | E 0.833 | R 1.02 | A 1.05 | N 1.13 | C 1.1 | Q 0.546 | L 0.984 | T 0.974 | H 1.48 | K 0.894 | W 1.22 | M 0.776 | Y 1.17 | V 0.921 | F 0.518
L397: G 0.775 | Y 0.779 | Q 1.36 | R 0.938 | N 0.167 | I 0.407 | V 0.641 | W 0.989 | H 0.0686 | T 0.852 | F 0.99 | S 0.938 | K 0.921 | M 0.0442 | P 0.66
S411: H 0.897 | Q 0.0682 | D 0.711 | W 1.31 | K 1.18 | E 0.407 | Y 1.06 | L 1.24 | V 1.06 | R 0.871 | C 1.45 | A 1.04 | F 1.46 | T 0.867 | I 1.3 | N 0.99 | M 1.37 | P 1.08 | G 0.952
A399: S 0.793 | F 1.64 | Y -0.0769 | Q 0.327 | M 1.22 | L -0.706 | W 1.2 | I 0.768 | G 0.994 | R 0.779 | C 1.18 | P 1.38 | T 0.845 | E 0.88 | K 0.799 | V 0.911 | H 1.63 | N 0.798
S412: T 1.02 | I 0.868 | R 1.07 | V 1.13 | F 1.37 | A 1.09 | N 0.717 | C 0.988 | W 1.72 | P 0.711 | L 1.15 | G 1.03 | M 1.3 | H 1.26 | K 0.899 | Q 0.66 | E 0.743 | D 0.652 | Y 1.5
P407: Q 1.2 | S 1.19 | Y 1.51 | V 1.23 | E 0.454 | H 1.28 | M 1.6 | R 0.823 | G 1.07 | D 1.67 | T 1.18 | F 1.2 | W 1.13 | K 0.865 | L 1.06 | N 1.39 | A 0.943 | I 1.43 | C 1.24
L409: V 0.903 | D 1.21 | A 0.384 | S 1.23 | C 0.887 | T 1.02 | F 0.907 | G 0.891 | H 0.62 | Q 0.636 | M 1.03 | K 0.881 | I 1.16 | E 0.899 | N 0.459 | Y 0.962 | R 0.789 | P 1.25
A413: C 1.42 | P 0.731 | S 0.965 | F 0.975 | I 1.34 | Q 1.01 | N 0.373 | R 0.964 | H 0.905 | D 0.666 | Y 1.25 | K 0.606 | W 1.15 | V 0.931 | M 1.02 | E 0.842 | T 1.17 | G 1.12 | L 1.43
